Results: the nanobody polyreactivity screen of Harvey et al. (2022)

Assay: yeast display, Sf9 membrane polyspecificity reagent, FACS + sequencing; frameworks hold sequencing errors
Method in brief: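 A synthetic nanobody library was expressed on Saccharomyces cerevisiae BJ5465 by galactose induction for 36–48 hours. The library was stained for 1 hour at 4 °C with 10% biotinylated, detergent-solubilized Sf9 membrane reagent and enriched with streptavidin microbeads before FACS. Low and high (top ~1%) gates were set on anti-HA fluorescence for expression and streptavidin fluorescence for reagent binding, and each polyreactivity label reflects the gate of origin.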

Sequence	polyreactivity (PSR sort gate)
QVQLVESGGGLVQAGGSLRLSCAATGIKFDGYAMGWYRQEPRKERELVAGITIGDITYYADSVKGRFTISRDNAKNTVYLQMNSLKPEDTAVYYCADDCYYYQTAYDYWGQGTQVTVSS	low polyreactivity
QVQLVESGGGLVQAGGSLRLSCAASGRILPSNAMGWYRQATGNERELVATISSSGGDTYYADSVKGRFTNSRDNAKNTVYLQMNSLKPEDTAVYYCAADSTWEGGYKYEYWGQGTQVTVSS	low polyreactivity
QVQLVESGGGLVQAGGSLRLSCAASGSTFQYNAMGWYRQAPGKEREFVAAISRTGTSTYYADSVKGRFTISRDNAKNTVYLLMNSLKPEDTAVYYCAAKSLRSGMGYWGQGTQVTVTS	high polyreactivity
QVHLVESGGGLVQAGGSLRLSCAASGRTFYDYAMGWYRQAPGKERELVAAITYSGGSTFYADSVKGRFTISRDNAKNTFYLQMNSLKPEDTAVYYCAAEVLRLVGAAEYDYWGQGTQVTVSS	low polyreactivity
QVQLVESGGGLVQAGGSLRLSCAASGRISDVYVMVWYRQAPGKERELFAAITWSGGDTYYADSVKGRFTISRDNAKNTVYLQMNSLKPEDTEVYYCTADTGKWGGNGWYDFDYWGQGTQVTVSS	low polyreactivity
QVQLQESGGGLVQAGGSLCLSCAASGTIFFDGDMGWNRQAPGKEREFVAAINPGGSAYYADSVKGRLPLAAITHTVYMQMYSLKPEDTAVYYCEAILFDVYGYYYWGQGTNVTVSS	low polyreactivity
QVKLVESGGGLVQAGRSLRLICAASGFTFHYNSMGWYRQAPGKEREFVAAISGSGDRTYYADSGKGRFTISRDNAKNTVYLQMNSLKPEDTAVYYCATSVRQNYFYSYDYWGQGTQVTVSS	high polyreactivity
QVQLVESGGGLVQAGGSLRLSCAASGRIIFRNAMGWYRQAPGKERELVAAISTSGGSTYYADSVKGRFTISRDNAKNTVYLQMNSLKPEDTAVYYWSKQFNSSPRRYYWGQGTQVTVSS	high polyreactivity
QFQLVESGGGLVQAGGSLRLSCAASGSIFRGTAMGWYRQAPGKERELVAAINKSGGSTYYADSVKGRFTISRDNAKNTVYLQMNSLKPEDTAVYYCAARGYFWSSYKYDYWGQGTEVTVSS	high polyreactivity
QVQLVESGGGLVQAGGSLRLSCAASGRTFGVYAMGWYRQAPGKERELVAAISKSDGSTYYADSVKGRFTISRDNAKNTVYLQMNSLKPEDTAVYYCATVTRHQRDTQYDYWGQGTQVTVSS	low polyreactivity
QVQLVESGGGLVQAGGSLRLSCAASGRTFVYNAMGWYRQAPGKERELVAAISSSGGSTRYADSVKGRFTISRDNAMNTVYLQMNSLKPEDTAVYYCATRTKAYLYTYYYWGQGTQVTVSS	high polyreactivity
QVQLVESGGGLVQAGGSLRLSCAASGRTFGRNAMGWYRQAPGKERELVAAISSSGGRTYYADSVKGRFTISRDNAKNTVYLQMNSLKPEDTAVYYCNALTYYRDYWGQGTQVTVSS	high polyreactivity
QVQLVESGGGLVQAGGSLRLSCAASGLTFISYDMGWYRQAPGKERELVAAISSGGVLPNYADSVKGRFTISRDNAKNTVYLQMNSLKPEDTAVYYCNADTPTWPLDYWGQGTQVTVSS	low polyreactivity
QVQLVESVGGLVQAGGSLRLSCAASGRIFPTYAMGSSRQAPGKERELVAAISRSGGRTYYADSVKGRFTSSRDNAKNTVYLQMNSLKPEDTAVYYCNAEGDPYVDFPSRSTGYDYWGQGTQVTVSS	high polyreactivity
QVQLVESGGGLVQAGGSLRLSCAASGFIFGSNAMGWYRQAPGKERELVAAISRSGGSTYYADSVKGRFTISRDNAKNTVYLQMNSLKPEDTAVYYCNVVLWPFVYSWWSYDYWGQGTQVTVSS	high polyreactivity
QVQLVESGGGLVQAGGSLRLSCAASGRTLYYYAMGWYRQAPGKEMDLVASISRGGNTNYADSVKGRFTISRDNAKNSVYLQMYSLKPEDTAVYYCAAQYSPYSFSQYVYWGQGTQVTVSS	high polyreactivity
QVQLVETGGGIVQAGGSLRLSCAASGITFQSNTMGWYRQSPGKERELVAAITWTGGRTYYADSVKGRFTISRDNAKNTVYLQMNSLTPEDTAVYYCNADGYAICYNGKLDYWGQGTQVTVSS	high polyreactivity
QVQLLESGGGIVQAGGSLRLSCVASGFTISVYAMVWYRHAPGKERELVAAISRVGSSNYADSVKGRFTISRDNAKNTVYLHMISLKTEDTSVYYCNAVLRHTWVSRGYGSWGQGTQVSVSS	high polyreactivity
QVQLVESGGGLDQAGGSLRLSCAASGLTFAYYTMGWSRQEPGKERELVADISRSGGSTYYADSVKGRFTISRDNAKNTVYLQMNSLKPEDTAVYYCAAYRYGSRYGYEYWGQGTQVTVSS	high polyreactivity
QVQLVESAGGLVQAGGSLRLSCAASVSTIAPNAMGWYRQAPGKERELVASIRRGGSTHYADSVKGSFTISRDNAKNTVYLQMNSLKPEDTAVYYCAKDVWRHYLNLYDYWGQGTQVTLSS	low polyreactivity
QVQLVESGGGLVQAGGSLRLSCAASGRIFKNYAMGWYRQAPGKERELVAAITWSGGRTYYADSVKGRFTISRDNAKNTVYLQMNSLKPEDTAVYYCATAARRGPNSIEPFGYGSWGQGTQVTVSS	high polyreactivity
QFQLVESGGGLVQAGGSLRLSCAASGSTFGTYAMGWYRQAPGKERELVAAISSGGSTYYADSVKGRFTISRDNAKNTVYLQMNSLKPEDTAVYYCAAGYYWYVWGFGYWGQGTQVTVSS	low polyreactivity

Sequence	polyreactivity (PSR sort gate)
QVQLVESGGGLVQAGGSLLLSCAASGSIFFPNAMGWYRQAPGKERELVAAINWSGDSTYYADSVKGRFTISRDNAKNTVYLQMNSLKPVDTAVYSCNATYPWFDYDYWGQGTQVTVSS	low polyreactivity
QVQLVESGGGLVQAGGSLRLICAASGSIFTLYDMGWYRQAPGKERELVAAITSGGSTDYADSVKGRFTISRDNAKNTVYLQMNSLKPEDTAVYYCNAEAYPYWYRGASREYDYWGQGTQVTVSS	low polyreactivity
QVQLVESGGGLVQAGGSLRLSCAASGFTFGYYGMGWSRQAPGKERELVAGISSSGSRTYYADSVKGRFTISRDNAKNTVYLQMNSLKPEDTAVYYCNKYYSGKSYTGEDYWGQGTQVTVSS	high polyreactivity
QVQLVESGGGLVQAGGSLRLSCAASGTTFVYYAMVWYRQAPGKERYLVAAITWNGGSTYYADSVKGRFTISRDNAKNTVYFQMNSLKPEDTAVYYCNAAFRAGAVYGYYWGQGTQVTVSS	high polyreactivity
QVHLVESGGGLVQAGGSLRLSCAASGRTFDLNAMGWYRQAPGKERELVAGISSSGGRTYYADSVKGRFTISRDNAKNTVYLQMNSLIPEDTAVYYCAKVYPSYVLRKYDYWGQGTQVTVSS	high polyreactivity
QVQLVESGGGLVQAGGSLRLSCAASGSIFGENAMGWYRQAPGKERELVAAITSGGSTDYADSVKGRFTISRDNAKNTVYLQMNSLKPEDTAVYYCAASGRVGPGYWYDSWGQGTQVTVSS	low polyreactivity
QVQLVESGGGLVQAGGSLRLSCAASGRTLAPNAMGWYRQAPGKERELVSTITRGGTTNYADSVKGRFTISRDNAKNTVYLQMNSLKPEDTAVYYCAKAHYLGYYQRYDYWGQGTQVTVSS	low polyreactivity
QVQLVESGGGLVQAGGSLRLSCAASGITFWRYAMGWYRQAPGKERELVAAIDWSGGDTYYADSVKGRFTISRDNAKNTVYLQMNRLKPEDTAVYYCATDRYAYKLYDYWGQGTQVTVSS	low polyreactivity
QVQLVESGGGLVQAGGSLRLSCAASGSTFTYYAMGWYRQAPGKERELVAAISSTDSTYYADSVKGRFTISRDNAKNTVYVQMNSLKPEDTAVYYCAAVRFSHSRETRRGYWGQGTQVTVSS	high polyreactivity
QVQLVESAGGLVQAGGSLRLSSAASGRIFKYNAMGWYRQAPGKERELVAAISSSGARTYYADSVKGRFTISRDNAKNTVYLQMNSLKPEDTAVYYCAVYYYDFTSTEYGYWGLGTQVTVSS	high polyreactivity
QVQLVESGGRLVQAGGRLPLSCAASGSIFTGNAMGWYRQAPGKERELVAAITQRGGRTYYADSVKGRFTISRDNSKNTVYLQMNSLKPEDTAVYYCAADPPGYVYGKRYYWGQGTQVTVSS	high polyreactivity
QVQLVESGGGLVQAGGSLRLSCAASGSTFAGNAIGWYRQAPGKERELVAAITSGTGTHYADSVKGRFTISRDNAKNSVYLQMNSLKPEDTAVYYCAAEVWSWAGIWGYEYWGQGTQVTVSS	low polyreactivity
QVQLVESGGGLVQAGGSLRLSCAPSVRIFGTNAMGWYRQAPGTERELVADITSGGSTNYADSVKGRFTISRDNAKNTVYLQMISLKPEDTAVYYCAADVIGDLRWYRDEYWGQGTQVTVSS	low polyreactivity
QVQLVESGGGLVQAGGSLRLSCAASGSTFYINAMGWYRQAPGKERELVAAISWGGGSTYYADSVKGRFTISRDNAKNTVYLQMNSLKPEDTAVYYCAKLKGTQPNRYDYWGQGTQVTVSS	low polyreactivity
QVQLVESGGGLVQAGGSLRLSCAASGYIFEEYDMGWYRQAPGKERELVAAISASGGSTYYADSVKGRFTISRDNAKNTVYLQMNSLKPEDTAVYYCAADAVREVYGSWDDYWGQGTQVTVSS	low polyreactivity
QVQLVESGGGLVQAGGSLRLSCAASGGTFWIYAMGSYRQAPGKERELVAGISHGDSTYYADSVKGRFTISRDNAKNTVYLQMNSLKPEDTAVYYCARDYRNPPFAYEYWGQGTQVTVSS	low polyreactivity
QVQLVESGGGLVQAGGSLRLSCAASGFIFRYYAMGWYRQAPGKERELVAAITSGGASTYYADSVKGRFTISRDNAKNTVYLQMNSLKPEDTAVYYCAADTSSYSEYDYWGQGTQVTVSS	low polyreactivity
QVQLVESGGGLVQAGGSLRLSCAASGFIFRQNAMGWYRQAPGKERELVAAISGSGGRTYYADSVKGRFTISRDTAKNTVYLQMNSLKPEDTAVYYCAAQYVTSRFDYWGQGTQVTVSS	high polyreactivity
QVQLVESGGGLVQAGGSLRLSCAASGSIFTFYAMGWYRQAPGKERELVAAISSGGDTYYADSVKGRFTISRDNAKNTVYLQMNSLKAEDTAVYYCAADWRGSYLYGYYYWGQGTQVTVSS	low polyreactivity
QVQLVESGGGLVQAGGSLRLSCAASGGTFEYYAMGWDRQAPGKESELVAGITGGGVSTYYADSVKGRFTISRDNAKNPVYLQKNSLKPEDTAVYYSAAAYYQDNFWWYYYWGQGTQVNVSS	high polyreactivity
QVQLVESGGGLVQAGGSLRLSCAASGNIFVNYAMGWYRQAPGKERELVASINYNGGNTYYADSVKGRFTISRDNAKNTVYLQMNSLKPEDTAVYYCAKDGGGLLRWYTDEYDYWGQGTQVNVSS	low polyreactivity
